# B1: AcDCXR (Aphis craccivora) (protein)
# chain: MEEFFVGKKFIVTGANAGIGETITKRLVQLGAHVFAVGRDPKKLPPAGPNLTPVCADVGDWDSYDIIKKLGPVHGLVNNAGVAFIESFFDMTQEGWDKTLNINARGIVRISQAVAQNMKDAGIKGSIVNVSSTISERAIPDHTSYCASKGAVNQVTRVMSIELGKLGIRTNNVNPTVVMTKMGAKAWSDPEKSNPILSRIPLGRFAECDDVANVTLFLLSDYSTYVNGVSIPVDGGFLAS
# notes: coding region without predicted signal peptide (first 23 of at least 263 residues); pDEST17 N-terminal 6xHis tag, no cleavage told; E. coli ArcticExpress
# Experiments:
# purified protein [1] = substrate: CC(=O)C=O; experiment: purified protein; format: biochemical, Aphis craccivora; conditions: 200 μM NADPH (methods; figure legend prints 200 mM), sodium phosphate pH 6.5, methylglyoxal varied
# purified protein [2] = substrate: NC(=O)c1ccc[n+]([C@@H]2O[C@H](COP(=O)(O)OP(=O)(O)OC[C@H]3O[C@@H](n4cnc5c(N)ncnc54)[C@H](OP(=O)(O)O)[C@@H]3O)[C@@H](O)[C@H]2O)c1; experiment: purified protein; format: biochemical, Aphis craccivora; conditions: 200 mM xylitol fixed, NADP+ varied, 100 mM glycine pH 9.5, 3 mM MgCl2, paper speaks of it as constant of xylitol oxidation, varied: cofactor
protein,measurement,setting,value
B1,Km,purified protein [1],1300 µM
same,kcat,purified protein [1],0.23 s⁻¹
same,Km,purified protein [2],560 µM
same,kcat,purified protein [2],1.85 s⁻¹

# Reference: PMC7243947, “AcDCXR Is a Cowpea Aphid Effector With Putative Roles in Altering Host Immunity and Physiology” (Frontiers in Plant Science, 2020)
